In paper doi:10.1101/2023.04.11.536350:
Several values for one entry are separate records, joined by “and”; a condition that tells them apart may be missing. Identical values can stand only once.

What was measured:
[1] = biological target: ErCry4a C317A (European robin (Erithacus rubecula)); test: native MS
[2] = biological target: ErCry4a C412A (European robin (Erithacus rubecula)); test: native MS
[3] = biological target: European robin cryptochrome 4a, wild type, with N-terminal 10xHis-tag (European robin (Erithacus rubecula)); test: mass photometry
[4] = biological target: European robin cryptochrome 4a, wild type, with N-terminal 10xHis-tag (European robin (Erithacus rubecula)); test: native MS
[5] = biological target: European robin cryptochrome 4a, wild type, with N-terminal 10xHis-tag (European robin (Erithacus rubecula)); test: native MS; remark: listed apart in the source
[6] = biological target: ErCry4a C412A+C317A (European robin (Erithacus rubecula)); test: native MS

ErCry4a C317A (natural protein) was tested, and the stoichiometry N [1] was 2 and 3.

In the case of ErCry4a C412A (natural protein), the stoichiometry N [2] is reported as 2 and 3.

In the case of “European robin cryptochrome 4a, wild type, with N-terminal 10xHis-tag (natural protein)”, the percent of counts in the dimer peak [3] is reported as 11%, the stoichiometry N [3] is reported as 2 and the stoichiometry N [4] is reported as 2. For the same substance, the stoichiometry N [5] was 3.

For ErCry4a C412A+C317A (natural protein), the stoichiometry N [6] was 2 and 3.
